# From US10836794B2, “Group of peptides for treating female sexual dysfunction” (“IVIX” Ltd., priority 2016, dated 2020)
# Non-standard residues stand in square brackets, D forms with d. No end group written: not given here. Hyp = O=C(O)[C@@H]1C[C@@H](O)CN1
# Columns and labels:
# [1] = Stability of liquid pharmaceutical forms (peptide 0.2 %, benzalkonium chloride 0.01 %, water) during storage; single and total impurities; format: physicochemical
# Description: Investigations of the Stability of Pharmaceutical Forms Containing Peptides Having the Property of Stimulating the Genital and Sexual Functions
# This experiment investigated the stability of compositions containing peptides according to the invention. The results of the investigations are illustrated by the example of several peptides according to the invention containing hydroxyproline, in particular Thr-Lys-Hyp […], Thr-Lys-Hyp-Arg-Hyp (SEQ ID NO: 13), Thr-Lys-Hyp-Arg-Hyp-Phe and Thr-Lys-Hyp-Arg-Hyp-Gly-Hyp (SEQ ID NO: 14).
# The peptides described in RU2507212 were also obtained, in particular Thr-Lys-Pro, Thr-Lys-Pro-Arg-Pro (SEQ ID NO: 6), Thr-Lys-Pro-Arg-Pro-Phe (SEQ ID NO: 7) and Thr-Lys-Pro-Arg-Pro-Gly-Pro (SEQ ID NO: 1).
# From the compounds obtained, a liquid pharmaceutical form (a solution) was prepared, including the peptide and the preservative benzalkonium chloride with the following ratio of components: 0.2 and 0.01 mass %, respectively, water the rest. Samples were placed in storage at two temperature regimes, namely, +4° C. and +25° C. Investigation of the stability of the peptides was carried out after 1, 3, 6, 12, and 24 months of storage. In the investigation of the samples for stability, the quantity of single impurities and the total quantity of impurities were evaluated, testifying to the degradation of the peptides. The pharmaceutical requirements of the company for impurities are: any single impurity, not more than 1.5%; total content of impurities, not more than 3.0%. If the content of impurities exceeded the above indicated values, the pharmaceutical form was deemed to have failed the test for stability.
# female rats = assay: Efficacy in vivo on preclinical model (Lordoz test): proceptive behavior of ovarioectomized, hormonally stimulated females; details: 100 mcg/rat, progesterone 0.5 mg/rat
# Description: Investigation of the Efficacy of the Peptides of the Invention as a Means of Stimulating the Genital and Sexual Functions
# In order to confirm the efficacy as a means of stimulating the genital and sexual functions, peptides according to the invention were synthesized, in particular the tripeptide Thr-Lys-Hyp, the pentapeptide Thr-Lys-Hyp-Arg-Hyp (SEQ ID NO: 12), and the hexapeptide Thr-Lys-Hyp-Arg-Hyp-Phe (SEQ ID NO: 13), and tests were performed as to the efficacy in vivo on the relevant preclinical model (Lordoz test). Furthermore, the efficacy of the group of peptides Thr-Lys-Pro, Thr-Lys-Pro-Arg-Pro (SEQ ID NO: 6), and Thr-Lys-Pro-Arg-Pro-Phe (SEQ ID NO: 7) was also investigated.
# The efficacy of the aforementioned groups of peptides was investigated in a dose of 100 mcg/rat with respect to the sexual behavior of female rats. The sexual behavior was registered over the course of 0-16 days in ovarioectomized, hormonally stimulated females in the case of direct contact with sexually active males and in the case when no such contact was possible. […] The results testify to an increase in sexual motivation under the action of the peptides Thr-Lys-Hyp, Thr-Lys-Hyp-Arg-Hyp (SEQ ID NO: 12), and Thr-Lys-Hyp-Arg-Hyp-Phe (SEQ ID NO: 13).
# [2] = stored for 1 month at +4° C., solution 0.2 mass % peptide, 0.01 mass % benzalkonium chloride
# [3] = stored for 1 month at +25° C., solution 0.2 mass % peptide, 0.01 mass % benzalkonium chloride
# [4] = stored for 12 months at +25° C.
# [5] = stored for 24 months at +25° C.
Substance,"Single impurities [1, 2]","Total impurities [1, 2]","Single impurities [1, 3]","Total impurities [1, 3]",Single impurities ([1]; stored for 3 months at +4° C.),Total impurities ([1]; stored for 3 months at +4° C.),Single impurities ([1]; stored for 3 months at +25° C.),Total impurities ([1]; stored for 3 months at +25° C.),Single impurities ([1]; stored for 6 months at +4° C.),Total impurities ([1]; stored for 6 months at +4° C.),Single impurities ([1]; stored for 6 months at +25° C.),Total impurities ([1]; stored for 6 months at +25° C.),Single impurities ([1]; stored for 12 months at +4° C.),Total impurities ([1]; stored for 12 months at +4° C.),Single impurities ([1]; stored for 24 months at +4° C.),Total impurities ([1]; stored for 24 months at +4° C.),Number of proceptive behavior acts (female rats; day 0 of giving the drug),Number of proceptive behavior acts (female rats; day 5 of giving the drug),Number of proceptive behavior acts (female rats; day 11 of giving the drug),Number of proceptive behavior acts (female rats; day 16 of giving the drug),also measured
"Thr-Lys-Pro-Arg-Pro-Gly-Pro (TKPRPGP; not fully specified; printed as Thr-Lys-Pro-Arg-Pro-Gly-Pro) [heptopeptide “Selank”, a synthetic analogue of the endogenous peptide tuftsin, reference compound]",0.05%,0.17%,0.065%,0.13%,0.07%,0.2%,0.9%,1.2%,0.8%,1.4%,1.7%,3.1%,1%,1.7%,2%,3.7%,–,–,–,–,–
"Thr-Lys-Pro-Arg-Pro-Phe (TKPRPF; not fully specified; printed as Thr-Lys-Pro-Arg-Pro-Phe) [hexapeptide described in RU2507212, comparison peptide, reference compound]",0.054%,0.17%,0.11%,0.19%,0.09%,0.18%,0.9%,1.1%,0.5%,1.1%,1.9%,3.5%,0.9%,1.3%,1.6%,"2,9%",14 ± 4,16 ± 4,19 ± 4,26 ± 4,–
"Thr-Lys-Pro-Arg-Pro (TKPRP; not fully specified; printed as Thr-Lys-Pro-Arg-Pro) [pentapeptide described in RU2507212, comparison peptide, reference compound]",0.042%,0.09%,0.067%,0.54%,0.042%,0.93%,0.19%,0.9%,0.09%,1%,1.4%,3.0%,0.8%,1.5%,1.1%,1.9%,12 ± 4,15 ± 4,24 ± 4,36 ± 6,"Single impurities [1, 4]: 4%; Total impurities [1, 4]: 6%"
Thr-Lys-[Hyp],0.034%,0.09%,0.052%,0.11%,0.035%,0.11%,0.052%,0.9%,0.036%,0.2%,0.2%,1%,0.09%,0.3%,0.1%,0.9%,12 ± 4,25 ± 4,24 ± 4,26 ± 4,"Single impurities [1, 4]: 0.3%; Total impurities [1, 4]: 1.2%; Single impurities [1, 5]: 0.8%; Total impurities [1, 5]: 1.8%"
